Experiments:
Details in all cases: protein: recombinant; tags: C-terminal His6 (pETM13); blunt
P150 575-860 (ED + WHD) = P150 575-860 (ED + WHD) (Homo sapiens, UniProt Q13111 575-860); experiment: EMSA; 2 uM DNA, 0-25 molar ratio; no complex detected; EMSA: 20 mM Tris-HCl, 100 mM NaCl, 1 mM DTT, pH 7.5, 45 min on ice; 6% PAGE in 0.5X TBE on ice
P150 721-860 (WHD) [1] = target: T1, P150 721-860 (WHD) (Homo sapiens, UniProt Q13111 721-860); experiment: EMSA; 1 uM DNA, Sybr Gold; fit with Hill slope; EMSA: 20 mM Tris-HCl, 100 mM NaCl, 1 mM DTT, pH 7.5, 45 min on ice; 6% PAGE in 0.5X TBE on ice
P150 721-860 (WHD) [2] = target: T1, P150 721-860 (WHD); experiment: EMSA; about 21 uM DNA; EMSA: 20 mM Tris-HCl, 100 mM NaCl, 1 mM DTT, pH 7.5, 45 min on ice; 6% PAGE in 0.5X TBE on ice
P150 721-860 (WHD) [3] = target: T1, P150 721-860 (WHD); experiment: EMSA; 21 uM DNA, 0-15 molar ratio, EtBr; EMSA: 20 mM Tris-HCl, 100 mM NaCl, 1 mM DTT, pH 7.5, 45 min on ice; 6% PAGE in 0.5X TBE on ice

T1 sequence (Q13111 721-860): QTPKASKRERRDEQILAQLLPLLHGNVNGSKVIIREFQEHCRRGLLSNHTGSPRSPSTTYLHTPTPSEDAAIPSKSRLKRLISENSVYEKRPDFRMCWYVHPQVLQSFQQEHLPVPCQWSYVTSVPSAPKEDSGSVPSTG
P150 575-860 (ED + WHD), sequence (Q13111 575-860): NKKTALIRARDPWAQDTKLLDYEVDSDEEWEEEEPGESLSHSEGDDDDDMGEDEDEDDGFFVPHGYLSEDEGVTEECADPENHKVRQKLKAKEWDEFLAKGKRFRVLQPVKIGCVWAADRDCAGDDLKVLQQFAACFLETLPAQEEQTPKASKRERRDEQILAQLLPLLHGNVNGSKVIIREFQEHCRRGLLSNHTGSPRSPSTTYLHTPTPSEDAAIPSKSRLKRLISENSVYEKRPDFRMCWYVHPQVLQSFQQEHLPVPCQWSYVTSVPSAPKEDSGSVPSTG

B1: 58 bp dsDNA (dsDNA)
DNA 1: ATACATTTTATGACTGGAAACTTTTTTGTACAACACTCCAATAAACATTTTGATTTTA
DNA 2: TAAAATCAAAATGTTTATTGGAGTGTTGTACAAAAAAGTTTCCAGTCATAAAATGTAT
- binding result (P150 575-860 (ED + WHD)): no binding
- Kd (P150 721-860 (WHD) [1]): 10.4 ± 0.5 µM

B2: 16 bp AT rich dsDNA (dsDNA)
DNA 1: ATAATCGATATTCGTT
DNA 2: AACGAATATCGATTAT
- binding result (P150 721-860 (WHD) [2]): binds

B3: 16 bp GC rich dsDNA (dsDNA)
DNA 1: ATCGCCCGCGCACGCA
DNA 2: TGCGTGCGCGGGCGAT
- binding result (P150 721-860 (WHD) [2]): binds

B4: 16 bp dsDNA (dsDNA)
DNA 1: TGCTACCGATCGATAC
DNA 2: GTATCGATCGGTAGCA
- binding result (P150 721-860 (WHD) [3]): binds

Reference: PMC8874411, “Biochemical and Structural Insights into the Winged Helix Domain of P150, the Largest Subunit of the Chromatin Assembly Factor 1”
